The values that follow are results of earlier work, collected in article PMC5726918.

The data set addresses Asp3 (position 3, ---AADAA---). Briefly: potentiometry. Conditions: free peptide in solution.

As to AADAA [Alanine-based pentapeptide AADAA (terminally blocked, uncharged) (synthetic)], the pKa (in general, the pH at which an ionisable group is half protonated) is 3.9.
